Values joined by “and” are separate entries in the source; they are usually repeats but may differ in a detail not shown here. Identical values can stand only once.
Experiments:
[1] = tested on: BxPC-3 pancreatic cancer cells; test: In vitro cytotoxicity (MTS, 72 h) BxPC-3; type: cell-based, human; settings: 72 h incubation, Dox Equiv. concentration
Method: In vitro cytotoxicity C26 murine colon carcinoma cells and three different pancreatic cancer cell lines, BxPC-3, AsPC-1, and MIA PaCa-2, were used to study the in vitro cytotoxicity of ABD-DOX and Dox. Cells were cultured and grown as monolayers at 37° C. with C02 in a humidified incubator and were passaged at ˜80% confluency using 0.05% trypsin-EDTA (Invitrogen, Carlsbad, CA). C26, BxPC-3, AsPC-1, and MIA PaCa-2 cells were seeded in 96-well plates (5,000 cells/well) and incubated overnight. Three-fold serial dilutions of drug were then added to the wells in triplicate and also to control wells (media with no cells) to correct for the background Dox absorbance. After 72 h treatment, 20 μL MTS reagent was added to each well and was incubated for 3 h at 37° C., and the absorbance at 490 nm was measured using a Victor3 plate reader (Perkin Elmer, Boston, MA). Cell viability (%) was defined as the percentage of the absorbance of the drug-treated cells relative to buffer-treated cells and IC50 values were determined using logistic non-linear regression analysis with GraphPad Prism software. The IC50 was defined as the Dox Equiv. concentration of formulations resulting in 50% growth inhibition compared with a negative control, buffer-treated cells.

[2] = target: T1, human serum albumin (HSA) (Homo sapiens, UniProt P02768); test: Isothermal titration calorimetry of ABD-Dox with HSA; type: binding; settings: ITC, 37° C., PBS
T1 construct: purchased Sigma-Aldrich (St. Louis, MO)
Method: The gel was stained with SimplyBlue stain according to the manufacturer's instructions and imaged using the Gel Doc imaging system (Bio-Rad, Hercules, CA). Isothermal titration calorimetry was done using a standard volume Nano ITC from TA instruments (Lindon, Utah). […] The calorimetric data were analyzed by NanoAnalyze software (TA instruments, Lindon, UT) and were fit to an independent binding site model to compute the thermodynamic parameters including dissociation constant (KD), binding stoichiometry (n), enthalpy (ΔH), and entropy (ΔS).

[3] = Intravenous pharmacokinetics in healthy BALB/c mice
Method: Pharmacokinetics and biodistribution Pharmacokinetics and biodistribution experiments were performed to study the concentration of ABD-Dox in blood and tissues over time following intravenous (i.v.) administration. For the pharmacokinetic study, ABD-Dox and Dox in PBS and AlDox in 10 mM sodium phosphate, 5% D-(+)-glucose, pH 5.8 were injected at 5 mg Dox Equiv. per kg of body weight (BW) into healthy BALB/c mice. 10 μL blood samples were collected at 40 s, 15 min and 30 min, and 2, 4, 8, 24, 48, 72 and 96 h post injection and were diluted into heparinized PBS (1 kUmL^−1), and centrifuged at 4,000 rcf, 10 min, 4° C. to collect the plasma. 10 μL of the plasma samples were then diluted in 490 μL of acidified isopropanol (0.075 M HCl, 10% water) and incubated overnight at 4° C. For the biodistribution study, ABD-Dox and Dox in PBS were injected at 5 mg Dox Equiv.kg^−1 BW into C26 tumor-bearing BALB/c mice. At 2 h, 24 h, and 72 h post-injection, mice were sacrificed and tumor, heart, lung, liver, spleen, kidney and muscle tissues were dissected, weighed, homogenized in acidified isopropanol using a Mini-Beadbeater (Biospec, Bartlesville, OK) with 2 mm diameter zirconia beads for 1-2 min, and were incubated overnight at 4° C. Following overnight incubation in acidified isopropanol, plasma and tissue samples were centrifuged at 16,000 rcf, 4° C. for 10 min and the supernatants were loaded onto black 96-well plates in duplicate and the Dox fluorescence was measured using on a Victor3 microplate reader (Perkin Elmer, Waltham, MA) with fluorescence excitation at 485 nm and emission at 590 nm. Tissues were also dissected from three untreated mice, processed in the same manner, serially diluted, and loaded on the plates to prepare a standard curve of fluorescence intensity versus the weight for each tissue from which the background tissue fluorescence was calculated and subtracted for each sample. Serial dilution of free Dox in acidified isopropanol was used as standard to quantify the Dox concentration as […] per liter of plasma (μM) and as the percent of the injected dose per gram (% ID g^−1) in the tumor and other tissues. Plasma concentrations of Dox Equiv. of ABD-Dox versus time were fit to a two-compartment model using SAAM II software (SAAM Institute, Seattle, WA) and the elimination half-life and the area-under-curve were computed. The tissue concentration of Dox. Equiv. of ABD-Dox and free Dox at each time point were compared in GraphPad Prism software (GraphPad, San Diego, CA) by Student's t-test with P<0.05 considered statistically significant.

“ABD-Dox (GLAEAKVLANRELDKYGVSDYYKNLINNAKTVEGVKALIDEILAALPCGGCGGCGGCGG)” showed an IC50 [1] of 8.9 µM, a ΔH [2] of -6.72 kcal/mol and a ΔS [2] of 41.5 Jmol^−1K^−1. The “n (binding stoichiometry)” value ([2]; independent binding site model) was 1.03 and 1.0, the “drug in plasma at late time point” value ([3]; 96 h after injection) was “detectable in plasma even 96 h after injection” and the “Area under curve (total plasma exposure)” value ([3]; i.v., 5 mg Dox Equiv. per kg BW, plasma) was 2263.6 ± 44.7 µM·h. For the same substance, the Elimination half-life ([3]; i.v., 5 mg Dox Equiv. per kg BW, plasma, two-compartment model) was 29.4 ± 0.8 h and 29.4 h and the “area under the curve, fold higher than AlDox” value ([3]; mouse, in vivo) was 3 fold.

Reference: patent publication US12296018B2, “Albumin binding peptide-drug (AlBiPeD) conjugates and methods of making and using same” (priority 2018, dated 2025)
